Test results reported in patent publication US20200264182A1, “METHOD FOR DETECTING PROSTATE CANCER” (J-OIL MILLS, INC., priority 2017, published 2020).

Tests used:
FAC binding constant = settings: at 25° C.
Experimental: (§1) Details of the FAC method are described in Patent Document 2 filed by some of the present applicants, for example.
(§2) Binding constants (at 25° C.) of PhoSL, SRL, NSL and LSL belonging to the fucose α1→6 specific lectin for various sugar chains are shown in Tables 2 to 5.

[1] = FAC binding constant (Table 5 entry); settings: Table 5: sugar chain having no fucose; at 25° C.
Experimental: as §1, §2

[2] = Binding to sugar chains, summary of Tables 2 to 5
Experimental: as §1, §2
The AAL and AOL bind to the fucose α1→6 sugar chains (sugar chains No. 015, 201 to 203, and 401 to 418), as well as to the glycolipid-type sugar chain excluding the fucose α1→6 (sugar chains No. 718, 722, 723, 727, 909, 910 and 933). The LCL and PSL bind to the fucose α1→6 sugar chain, as well as to sugar chain excluding the α1→6 fucose (sugar chains No. 003, and 005 to 014).
Furthermore, the binding constant of the fucose α1→6 specific lectin is not decreased even if a sialic acid is added to the fucose α1→6 sugar chain (sugar chains No. 601 and 602). In addition, the fucose α1→6 specific lectin also strongly binds to the triple-strand (sugar chains No. 407 to 413) and the four-strand (sugar chains No. 418) of the fucose uα1→6 sugar chain.

[3] = sugar chain having fucose other than α1→6 fucose

B1: PSL: Pisum sativum lectin, affinity for fucose α1→6 but not specific (protein, UniProt P02867 31-217; P02867 218-275, looked up)
Lectin beta chain: TETTSFLITKFSPDQQNLIFQGDGYTTKEKLTLTKAVKNTVGRALYSSPIHIWDRETGNVANFVTSFTFVINAPNSYNVADGFTFFIAPVDTKPQTGGGYLGVFNSAEYDKTTQTVAVEFDTFYNAAWDPSNRDRHIGIDVNSIKSVNTKSWKLQNGEEANVVIAFNAATNVLTVSLTYPNSLEEEN
Lectin alpha chain: VTSYTLSDVVSLKDVVPEWVRIGFSATTGAEYAAHEVLSWSFHSELSGTSSSKQAADA
- Binding constant for sugar chain No. 728 (FAC binding constant; Table 3: sugar chain having fucose other than α1→6 fucose): <1000 M⁻¹
- Binding constant for sugar chain No. 419 (FAC binding constant; [3]): <1000 M⁻¹
- Binding constant for sugar chain No. 420 (FAC binding constant; [3]): <1000 M⁻¹
- Binding constant for sugar chain No. 718 (FAC binding constant; [3]): <1000 M⁻¹
- Binding constant for sugar chain No. 719 (FAC binding constant; [3]): <1000 M⁻¹
- Binding constant for sugar chain No. 720 (FAC binding constant; [3]): <1000 M⁻¹
- Binding constant for sugar chain No. 721 (FAC binding constant; [3]): <1000 M⁻¹
- Binding constant for sugar chain No. 722 (FAC binding constant; [3]): <1000 M⁻¹
- Binding constant for sugar chain No. 723 (FAC binding constant; [3]): <1000 M⁻¹
- Binding constant for sugar chain No. 726 (FAC binding constant; [3]): <1000 M⁻¹
- Binding constant for sugar chain No. 727 (FAC binding constant; [3]): <1000 M⁻¹
- Binding constant for sugar chain No. 729 (FAC binding constant; [3]): <1000 M⁻¹
- Binding constant for sugar chain No. 730 (FAC binding constant; [3]): <1000 M⁻¹
- Binding constant for sugar chain No. 731 (FAC binding constant; [3]): <1000 M⁻¹
- Binding constant for sugar chain No. 739 (FAC binding constant; [3]): <1000 M⁻¹
- Binding constant for sugar chain No. 909 (FAC binding constant; [3]): <1000 M⁻¹
- Binding constant for sugar chain No. 910 (FAC binding constant; [3]): <1000 M⁻¹
- Binding constant for sugar chain No. 931 (FAC binding constant; [3]): <1000 M⁻¹
- Binding constant for sugar chain No. 932 (FAC binding constant; [3]): <1000 M⁻¹
- Binding constant for sugar chain No. 933 (FAC binding constant; [3]): <1000 M⁻¹
- Binding constant for sugar chain No. 001 (FAC binding constant; sugar chain having no fucose): <1000 M⁻¹
- Binding constant for sugar chain No. 002 (FAC binding constant; sugar chain having no fucose): <1000 M⁻¹
- Binding constant for sugar chain No. 003 (FAC binding constant; sugar chain having no fucose): 7800 M⁻¹
- Binding constant for sugar chain No. 004 (FAC binding constant; sugar chain having no fucose): <1000 M⁻¹
- Binding constant for sugar chain No. 005 (FAC binding constant; sugar chain having no fucose): 7400 M⁻¹
- Binding constant for sugar chain No. 006 (FAC binding constant; sugar chain having no fucose): 7100 M⁻¹
- Binding constant for sugar chain No. 007 (FAC binding constant; sugar chain having no fucose): 7800 M⁻¹
- Binding constant for sugar chain No. 008 (FAC binding constant; sugar chain having no fucose): 10000 M⁻¹
- Binding constant for sugar chain No. 009 (FAC binding constant; sugar chain having no fucose): 7900 M⁻¹
- Binding constant for sugar chain No. 010 (FAC binding constant; sugar chain having no fucose): <1000 M⁻¹
- Binding constant for sugar chain No. 011 (FAC binding constant; sugar chain having no fucose): <1000 M⁻¹
- Binding constant for sugar chain No. 012 (FAC binding constant; sugar chain having no fucose): 17000 M⁻¹
- Binding constant for sugar chain No. 013 (FAC binding constant; sugar chain having no fucose): <1000 M⁻¹
- Binding constant for sugar chain No. 014 (FAC binding constant; sugar chain having no fucose): 8600 M⁻¹
- Binding constant for sugar chain No. 101 (FAC binding constant; sugar chain having no fucose): <1000 M⁻¹
- Binding constant for sugar chain No. 103 (FAC binding constant; sugar chain having no fucose): <1000 M⁻¹
- Binding constant for sugar chain No. 104 (FAC binding constant; sugar chain having no fucose): <1000 M⁻¹
- Binding constant for sugar chain No. 105 (FAC binding constant; sugar chain having no fucose): <1000 M⁻¹
- Binding constant for sugar chain No. 107 (FAC binding constant; sugar chain having no fucose): <1000 M⁻¹
- Binding constant for sugar chain No. 108 (FAC binding constant; sugar chain having no fucose): <1000 M⁻¹
- Binding constant for sugar chain No. 301 (FAC binding constant; sugar chain having no fucose): <1000 M⁻¹
- Binding constant for sugar chain No. 304 (FAC binding constant; sugar chain having no fucose): <1000 M⁻¹
- Binding constant for sugar chain No. 305 (FAC binding constant; sugar chain having no fucose): <1000 M⁻¹
- Binding constant for sugar chain No. 307 (FAC binding constant; sugar chain having no fucose): 2400 M⁻¹
- Binding constant for sugar chain No. 308 (FAC binding constant; sugar chain having no fucose): <1000 M⁻¹
- Binding constant for sugar chain No. 313 (FAC binding constant; sugar chain having no fucose): <1000 M⁻¹
- Binding constant for sugar chain No. 314 (FAC binding constant; sugar chain having no fucose): <1000 M⁻¹
- Binding constant for sugar chain No. 323 (FAC binding constant; sugar chain having no fucose): <1000 M⁻¹
- Binding constant for sugar chain No. 501 (FAC binding constant; sugar chain having no fucose): <1000 M⁻¹
- Binding constant for sugar chain No. 502 (FAC binding constant; sugar chain having no fucose): <1000 M⁻¹
- Binding constant for sugar chain No. 503 (FAC binding constant; sugar chain having no fucose): <1000 M⁻¹
- Binding constant for sugar chain No. 504 (FAC binding constant; sugar chain having no fucose): <1000 M⁻¹
- Binding constant for sugar chain No. 701 (FAC binding constant; sugar chain having no fucose): <1000 M⁻¹
- Binding constant for sugar chain No. 702 (FAC binding constant; sugar chain having no fucose): <1000 M⁻¹
- Binding constant for sugar chain No. 703 (FAC binding constant; sugar chain having no fucose): <1000 M⁻¹
- Binding constant for sugar chain No. 704 (FAC binding constant; sugar chain having no fucose): <1000 M⁻¹
- Binding constant for sugar chain No. 705 (FAC binding constant; sugar chain having no fucose): <1000 M⁻¹
- Binding constant for sugar chain No. 706 (FAC binding constant; sugar chain having no fucose): <1000 M⁻¹
- Binding constant for sugar chain No. 707 (FAC binding constant; sugar chain having no fucose): <1000 M⁻¹
- Binding constant for sugar chain No. 708 (FAC binding constant; sugar chain having no fucose): <1000 M⁻¹
- Binding constant for sugar chain No. 709 (FAC binding constant; sugar chain having no fucose): <1000 M⁻¹
- Binding constant for sugar chain No. 710 (FAC binding constant; sugar chain having no fucose): <1000 M⁻¹
- Binding constant for sugar chain No. 711 (FAC binding constant; sugar chain having no fucose): <1000 M⁻¹
- Binding constant for sugar chain No. 712 (FAC binding constant; sugar chain having no fucose): <1000 M⁻¹
- Binding constant for sugar chain No. 713 (FAC binding constant; sugar chain having no fucose): <1000 M⁻¹
- Binding constant for sugar chain No. 715 (FAC binding constant; sugar chain having no fucose): <1000 M⁻¹
- Binding constant for sugar chain No. 716 (FAC binding constant; sugar chain having no fucose): <1000 M⁻¹
- Binding constant for sugar chain No. 717 (FAC binding constant; sugar chain having no fucose): <1000 M⁻¹
- Binding constant for sugar chain No. 724 (FAC binding constant; sugar chain having no fucose): <1000 M⁻¹
- Binding constant for sugar chain No. 725 (FAC binding constant; sugar chain having no fucose): <1000 M⁻¹
- Binding constant for sugar chain No. 732 (FAC binding constant; sugar chain having no fucose): <1000 M⁻¹
- Binding constant for sugar chain No. 733 (FAC binding constant; sugar chain having no fucose): <1000 M⁻¹
- Binding constant for sugar chain No. 734 (FAC binding constant; sugar chain having no fucose): <1000 M⁻¹
- Binding constant for sugar chain No. 735 (FAC binding constant; sugar chain having no fucose): <1000 M⁻¹
- Binding constant for sugar chain No. 736 (FAC binding constant; sugar chain having no fucose): <1000 M⁻¹
- Binding constant for sugar chain No. 737 (FAC binding constant; sugar chain having no fucose): <1000 M⁻¹
- Binding constant for sugar chain No. 738 (FAC binding constant; sugar chain having no fucose): <1000 M⁻¹
- Binding constant for sugar chain No. 901 (FAC binding constant; sugar chain having no fucose): <1000 M⁻¹
- Binding constant for sugar chain No. 902 (FAC binding constant; sugar chain having no fucose): <1000 M⁻¹
- Binding constant for sugar chain No. 903 (FAC binding constant; sugar chain having no fucose): <1000 M⁻¹
- Binding constant for sugar chain No. 905 (FAC binding constant; sugar chain having no fucose): <1000 M⁻¹
- Binding constant for sugar chain No. 906 (FAC binding constant; sugar chain having no fucose): <1000 M⁻¹
- Binding constant for sugar chain No. 907 (FAC binding constant; sugar chain having no fucose): <1000 M⁻¹
- Binding constant for sugar chain No. 015 (FAC binding constant; sugar chain having α1→6 fucose): 120000 M⁻¹
- Binding constant for sugar chain No. 201 (FAC binding constant; sugar chain having α1→6 fucose): 100000 M⁻¹
- Binding constant for sugar chain No. 202 (FAC binding constant; sugar chain having α1→6 fucose): 44000 M⁻¹
- Binding constant for sugar chain No. 203 (FAC binding constant; sugar chain having α1→6 fucose): 25000 M⁻¹
- Binding constant for sugar chain No. 401 (FAC binding constant; sugar chain having α1→6 fucose): 92000 M⁻¹
- Binding constant for sugar chain No. 402 (FAC binding constant; sugar chain having α1→6 fucose): 48000 M⁻¹
- Binding constant for sugar chain No. 403 (FAC binding constant; sugar chain having α1→6 fucose): 38000 M⁻¹
- Binding constant for sugar chain No. 404 (FAC binding constant; sugar chain having α1→6 fucose): 45000 M⁻¹
- Binding constant for sugar chain No. 405 (FAC binding constant; sugar chain having α1→6 fucose): 36000 M⁻¹
- Binding constant for sugar chain No. 406 (FAC binding constant; sugar chain having α1→6 fucose): 13000 M⁻¹
- Binding constant for sugar chain No. 407 (FAC binding constant; sugar chain having α1→6 fucose): <1000 M⁻¹
- Binding constant for sugar chain No. 410 (FAC binding constant; sugar chain having α1→6 fucose): <1000 M⁻¹
- Binding constant for sugar chain No. 413 (FAC binding constant; sugar chain having α1→6 fucose): <1000 M⁻¹
- Binding constant for sugar chain No. 418 (FAC binding constant; sugar chain having α1→6 fucose): <1000 M⁻¹
- Binding constant for sugar chain No. 601 (FAC binding constant; sugar chain having α1→6 fucose): 31000 M⁻¹
- Binding constant for sugar chain No. 602 (FAC binding constant; sugar chain having α1→6 fucose): 29000 M⁻¹
- Binding constant for sugar chain No. 728 [1]: <1000 M⁻¹
- binding to sugar chain excluding the α1→6 fucose (in words) ([2]; sugar chains No. 003, and 005 to 014 for LCL and PSL): bind
- binding to the fucose α1→6 sugar chains (in words) ([2]; sugar chains No. 015, 201 to 203, and 401 to 418): bind
